Among the data in article doi:10.1101/2022.03.25.485857 are Ki values, retold here.

The target of this experiment is human α-thrombin (human). Kind of experiment: enzyme inhibition.
Take “chimadanin sulfated at both Tyr28 and Tyr31 (natural protein)”: the Ki was determined as 0.1 nM.

Substance “chimadanin with a single sTyr at Tyr28 (natural protein)” displayed a Ki of 0.6 nM. This Ki is about 6-fold higher than that of the substance before.

Regarding “chimadanin with a single sTyr at Tyr31 (natural protein)”, the Ki stood at 1.5 nM.

Take “madanin-1 sulfated at both Tyr32 and Tyr35 (natural protein)”: the Ki is 0.5 nM.

Consider “madanin-1 with a single sTyr at Tyr32 (natural protein)”, for which the Ki came to 1.3 nM.

Take “madanin-1 with a single sTyr at Tyr35 (natural protein)”: the Ki turned out to be 6.1 nM.

Substance wildtype chimadanin (natural protein) yielded an inhibitory constant (Ki) of 12.9 nM.

wildtype madanin-1 (natural protein) returned an inhibition constant Ki of 16 nM.

A word on the Ki: it is a dissociation constant, usually derived from enzyme kinetics or from competition with a known ligand.
